{
  "source": "paper doi:10.1101/2025.08.11.669711",
  "about": "“Site-Specific Nanobody Inhibitors of the Proteasomal Deubiquitinase UCH37” (bioRxiv, 2025)",
  "key": {"UCH37 [1]": {"target": "T1, UCH37 (Homo sapiens, strain)", "T1 construct": "from His8-MBP-TEV-UCH37 in pVP16 (DNASU); The purification of free UCH37 is not described; in the complexes with RPN13 the His-MBP tag was removed with TEV protease; also called UCHL5; free UCH37; source: E. coli, purified (His-MBP-TEV-UCH37 construct; individually purified for the crystal)", "T1 chain": "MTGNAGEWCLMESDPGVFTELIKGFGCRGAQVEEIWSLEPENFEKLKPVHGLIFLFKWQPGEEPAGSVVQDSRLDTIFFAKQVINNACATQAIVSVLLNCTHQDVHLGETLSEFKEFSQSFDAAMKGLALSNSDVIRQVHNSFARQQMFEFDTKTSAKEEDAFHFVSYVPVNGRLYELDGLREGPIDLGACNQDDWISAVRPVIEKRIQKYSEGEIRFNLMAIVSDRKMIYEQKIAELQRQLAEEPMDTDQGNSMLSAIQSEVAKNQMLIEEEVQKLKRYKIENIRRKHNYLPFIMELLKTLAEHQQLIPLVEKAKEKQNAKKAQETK", "test": "not stated; recombinant purified Nb-v1 with free UCH37 (Supplementary Figure 2b)", "conditions": "both partners purified"}, "UCH37•RPN13^DEUBAD [2]": {"target": "T2, UCH37•RPN13^DEUBAD (Homo sapiens, strain)", "T2 construct": "from His8-MBP-TEV-UCH37 in pVP16 (DNASU); RPN13 (ADRM1) DEUBAD domain, aa 253-407, cloned from His10-RPN13 in pET19b; source: E. coli BL21(DE3) pLysS, co-purified (Ni-NTA, TEV, GST resin, 3C, Superdex 200); not shown: His8, N-terminal, cleaved; MBP, N-terminal, cleaved; GST, N-terminal, cleaved", "T2 chain 1": "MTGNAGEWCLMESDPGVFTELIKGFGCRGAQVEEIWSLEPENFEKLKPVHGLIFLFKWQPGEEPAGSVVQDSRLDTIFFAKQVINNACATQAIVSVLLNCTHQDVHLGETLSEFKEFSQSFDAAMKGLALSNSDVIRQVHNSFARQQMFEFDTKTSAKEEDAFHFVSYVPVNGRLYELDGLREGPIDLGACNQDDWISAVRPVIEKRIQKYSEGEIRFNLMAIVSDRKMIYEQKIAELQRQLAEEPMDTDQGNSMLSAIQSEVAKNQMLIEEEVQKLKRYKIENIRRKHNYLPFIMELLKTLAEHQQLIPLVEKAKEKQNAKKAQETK", "T2 chain 2": "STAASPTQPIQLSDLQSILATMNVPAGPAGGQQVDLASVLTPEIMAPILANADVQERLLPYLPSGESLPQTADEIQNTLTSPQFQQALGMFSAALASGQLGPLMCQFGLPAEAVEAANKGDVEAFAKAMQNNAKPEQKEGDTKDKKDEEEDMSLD", "test": "native MS; 150 mM ammonium acetate pH 6.8; UCH37•RPN13^DEUBAD variants premixed with Nb-ncS1 in equimolar ratio, 1 hour on ice; final 10 uM; nanospray, Synapt G2", "conditions": "both partners purified"}, "Ub-UCH37•RPN13^DEUBAD": {"target": "T3, Ub-UCH37•RPN13^DEUBAD (Homo sapiens, strain, active site cysteine covalently linked to Ub propargylamine (Ub-PA) | C-terminal propargylamine after residue 75, linked to the active site cysteine of UCH37; biotin on the Avi tag in the …)", "T3 construct": "from His8-MBP-TEV-UCH37 in pVP16 (DNASU); RPN13 (ADRM1) DEUBAD domain, aa 253-407, cloned from His10-RPN13 in pET19b; ubiquitin residues 1-75 (Ub_(1-75)-propargylamine, made from Avi-Ub_(1-75)-intein); In the pull-down it was offered as a mixture with unconjugated UCH37•RPN13^DEUBAD; also called Ub conjugated UCH37•RPN13^DEUBAD; UCH37•RPN13^DEUBAD -Ub-PA; source: UCH37•RPN13^DEUBAD (E. coli, …)", "test": "native MS; 150 mM ammonium acetate pH 6.8; UCH37•RPN13^DEUBAD variants premixed with Nb-ncS1 in equimolar ratio, 1 hour on ice; final 10 uM; nanospray, Synapt G2", "conditions": "both partners purified"}, "UCH37 [3]": {"target": "T1, UCH37", "test": "SPR; BIACORE T200, His-Nb immobilised on NTA chip (about 30 RU); purified UCH37 injected, single cycle kinetics; 50 mM HEPES pH 7.5, 50 mM NaCl, 50 μM EDTA, 0.005% TWEEN 20; 25 °C; 1:1 model", "conditions": "both partners purified"}, "UCH37•RPN13^DEUBAD [4]": {"target": "T2, UCH37•RPN13^DEUBAD", "test": "SEC-MALS; nanobodies incubated with UCH37•RPN13^DEUBAD on ice 30 min; TSKgel G3000SWXL; 50 mM sodium phosphate pH 6.5, 150 mM sodium chloride, 10% isopropanol; room temperature", "conditions": "both partners purified"}, "UCH37•RPN13": {"target": "T4, UCH37•RPN13 (Homo sapiens, strain)", "T4 construct": "from His8-MBP-TEV-UCH37 in pVP16 (DNASU); RPN13 (ADRM1), His10-RPN13 in pET19b; source: E. coli BL21(DE3) pLysS, co-purified (amylose, TEV, Ni-NTA, Superdex 200); not shown: His8, N-terminal, cleaved; MBP, N-terminal, cleaved", "T4 chain 1": "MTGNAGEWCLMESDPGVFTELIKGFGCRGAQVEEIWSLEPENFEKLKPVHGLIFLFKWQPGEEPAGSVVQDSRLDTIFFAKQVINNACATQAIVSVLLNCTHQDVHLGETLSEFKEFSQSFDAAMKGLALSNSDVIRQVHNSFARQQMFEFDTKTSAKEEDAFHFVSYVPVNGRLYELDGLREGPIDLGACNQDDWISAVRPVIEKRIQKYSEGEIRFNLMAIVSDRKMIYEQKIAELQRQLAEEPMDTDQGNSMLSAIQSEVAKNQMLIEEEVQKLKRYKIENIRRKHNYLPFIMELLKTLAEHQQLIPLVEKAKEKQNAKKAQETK", "T4 chain 2": "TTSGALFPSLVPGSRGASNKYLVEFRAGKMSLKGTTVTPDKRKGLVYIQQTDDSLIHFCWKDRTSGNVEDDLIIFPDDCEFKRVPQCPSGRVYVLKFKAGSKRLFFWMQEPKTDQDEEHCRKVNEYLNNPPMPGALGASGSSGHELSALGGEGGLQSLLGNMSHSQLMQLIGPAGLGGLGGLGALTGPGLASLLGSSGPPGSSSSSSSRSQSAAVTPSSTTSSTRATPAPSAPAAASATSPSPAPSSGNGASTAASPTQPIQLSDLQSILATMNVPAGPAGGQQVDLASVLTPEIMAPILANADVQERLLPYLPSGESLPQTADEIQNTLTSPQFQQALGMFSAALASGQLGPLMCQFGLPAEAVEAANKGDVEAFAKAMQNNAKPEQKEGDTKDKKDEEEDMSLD", "test": "MST; nanobody labelled with fluorescein isothiocyanate at 20 nM (Nb-ncS1) or 50 nM (Nb-cS1); UCH37•RPN13 titrated 4 μM to 0.12 nM or 46 μM to 2.8 nM; 50 mM Tris pH 7.4, 150 mM NaCl, 10 mM MgCl2, 0.05% tween-20; room temperature; 1:1 Kd fit; duplicates", "conditions": "both partners purified"}, "UCH37 (endogenous) [5]": {"target": "T5, UCH37 (endogenous) (Homo sapiens (HEK293FT, endogenous))", "T5 construct": "endogenous UCH37 (UCHL5) of HEK293FT cells; also called UCHL5", "T5 chain": "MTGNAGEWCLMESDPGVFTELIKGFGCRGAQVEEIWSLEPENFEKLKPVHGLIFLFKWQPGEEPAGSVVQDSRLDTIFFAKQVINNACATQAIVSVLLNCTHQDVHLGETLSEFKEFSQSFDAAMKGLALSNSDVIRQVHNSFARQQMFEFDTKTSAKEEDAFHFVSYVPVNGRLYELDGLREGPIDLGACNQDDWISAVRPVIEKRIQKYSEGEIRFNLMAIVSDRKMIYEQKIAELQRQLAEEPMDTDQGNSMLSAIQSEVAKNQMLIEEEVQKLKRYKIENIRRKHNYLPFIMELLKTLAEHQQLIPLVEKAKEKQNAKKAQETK", "test": "co-IP; WT HEK293FT transfected with HA-Flag-tagged nanobodies; anti-FLAG resin 3 hours 4 °C; lysis in 50 mM HEPES pH 7.5, 50 mM NaCl, 5 mM MgCl2, 2 mM ATP, 1 mM DTT, 10% glycerol; blots of UCH37 and proteasome subunits", "conditions": "partners not purified"}, "[6]": {"target": "translation elongation factor EEF2 (Homo sapiens, UniProt P13639)", "test": "affinity purification with mass spectrometry; as a15, but UCH37KO HEK293FT cells", "conditions": "partners not purified"}, "HSP70 chaperone HSPA1B": {"target": "T6, HSP70 chaperone HSPA1B (Homo sapiens, UniProt P0DMV9)", "T6 construct": "endogenous HSPA1B; source: endogenous, UCH37KO HEK293FT lysate", "T6 sequence (P0DMV9 whole entry)": "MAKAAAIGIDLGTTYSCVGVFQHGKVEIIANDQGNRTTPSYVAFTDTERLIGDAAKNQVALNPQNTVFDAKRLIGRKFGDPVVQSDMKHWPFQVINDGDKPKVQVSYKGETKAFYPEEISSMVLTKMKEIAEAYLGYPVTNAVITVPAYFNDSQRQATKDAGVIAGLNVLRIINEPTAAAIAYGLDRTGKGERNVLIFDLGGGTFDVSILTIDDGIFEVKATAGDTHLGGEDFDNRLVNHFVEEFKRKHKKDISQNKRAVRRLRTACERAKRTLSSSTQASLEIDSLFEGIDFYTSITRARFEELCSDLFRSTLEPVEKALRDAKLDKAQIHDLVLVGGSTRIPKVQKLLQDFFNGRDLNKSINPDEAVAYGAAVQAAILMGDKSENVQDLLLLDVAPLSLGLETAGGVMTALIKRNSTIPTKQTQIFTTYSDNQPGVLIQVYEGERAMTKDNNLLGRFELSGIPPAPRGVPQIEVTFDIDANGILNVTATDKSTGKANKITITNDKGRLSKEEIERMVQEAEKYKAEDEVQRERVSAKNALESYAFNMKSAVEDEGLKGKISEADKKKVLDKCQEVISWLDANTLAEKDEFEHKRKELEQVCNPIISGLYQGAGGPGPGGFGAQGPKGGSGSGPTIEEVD", "test": "affinity purification with mass spectrometry; as a15, but UCH37KO HEK293FT cells", "conditions": "partners not purified"}, "UCH37 (endogenous) [7]": {"target": "T5, UCH37 (endogenous)", "test": "affinity purification with mass spectrometry; WT HEK293FT transfected with HaloTag nanobodies; immunoprecipitation, on-bead trypsin digestion, TMT labelling; compared with Halo-Nb-ctrl", "conditions": "partners not purified"}},
  "data": [
    {"binder": "Nb-v1 (recombinant) (VHH, most enriched clone of the first yeast display selection, parent of Nb-ncS1 (Nb-ncS1 = Nb-v1 with Q1R, L80Q, H99Y, A109P); His-tagged nanobodies were made in E. coli BL21 (DE3) by the general method; source: recombinant production and purification) VHH: QVQLQESGGGLVQAGGSLRLSCAASGYIFRSYRMGWYRQAPGKERELVAAIGLGGNTYYADSVKGRFTISRDNAKNTVYLQMNSLKPEDTAVYYCAALHGKPPAFSPFAYWGQGTQVTVSS", "values": [
      {"measurement": "Kd", "setting": "UCH37 [1]", "result": 0.3, "unit": "nM"}
    ]},
    {"binder": "Nb-ncS1 (His-tagged) (VHH, as the VHH of Nb-v1 with the four stated changes; Cloned into pET28b; Labelled with fluorescein isothiocyanate for MST; also called 6xHis-tagged Nb-ncS1; His-Nb; source: E. coli BL21 (DE3), purified (Ni-NTA, Superdex 75)) VHH: RVQLQESGGGLVQAGGSLRLSCAASGYIFRSYRMGWYRQAPGKERELVAAIGLGGNTYYADSVKGRFTISRDNAKNTVYQQMNSLKPEDTAVYYCAALYGKPPAFSPFPYWGQGTQVTVSS", "values": [
      {"measurement": "stoichiometry N", "setting": "UCH37•RPN13^DEUBAD [2]", "result": 1},
      {"measurement": "stoichiometry N", "setting": "Ub-UCH37•RPN13^DEUBAD", "result": 1},
      {"measurement": "Kd", "setting": "UCH37 [3]", "result": 0.125, "unit": "nM"}
    ]},
    {"binder": "Nb-cS1 (His-tagged) (VHH, synthetic nanobody from a yeast display library: clone Nb-v2 matured with L47F, T50I, K99R; Cloned into pET28b; Labelled with fluorescein isothiocyanate for MST; also called 6xHis-tagged Nb-cS1; cNb; source: E. coli BL21 (DE3), purified (Ni-NTA, Superdex 75)) VHH: QVQLQESGGGLVQAGGSLRLSCAASGYISRPRTMGWYRQAPGKEREFVAIISNGAITNYADSVKGRFTISRDNAKNTVYLQMNSLKPEDTAVYYCAAGRNIWHAYWGQGTQVTVSS", "values": [
      {"measurement": "stoichiometry N", "setting": "UCH37•RPN13^DEUBAD [4]", "result": 1},
      {"measurement": "Kd", "setting": "UCH37•RPN13", "result": 200, "unit": "nM"}
    ]},
    {"binder": "HA-Flag-tagged Nb-cS1 (VHH, as the VHH of m15 (Nb-cS1); source: HEK293FT, transiently transfected (1436 pcDNA3 Flag HA vector), in lysate or in fixed cells) VHH: QVQLQESGGGLVQAGGSLRLSCAASGYISRPRTMGWYRQAPGKEREFVAIISNGAITNYADSVKGRFTISRDNAKNTVYLQMNSLKPEDTAVYYCAAGRNIWHAYWGQGTQVTVSS", "values": [
      {"measurement": "binding result", "setting": "UCH37 (endogenous) [5]", "result": "binds"}
    ]},
    {"binder": "Halo-Nb-cS1 (expressed in cells) (VHH, as the VHH of m15 (Nb-cS1); The authors suspect that this fusion is misfolded in human cells; also called Halo-tagged Nb-cS1; source: HEK293FT (WT or UCH37KO), transiently transfected, in lysate; not shown: HaloTag, C-terminal, kept) VHH: QVQLQESGGGLVQAGGSLRLSCAASGYISRPRTMGWYRQAPGKEREFVAIISNGAITNYADSVKGRFTISRDNAKNTVYLQMNSLKPEDTAVYYCAAGRNIWHAYWGQGTQVTVSS", "values": [
      {"measurement": "binding result", "setting": "[6]", "result": "binds"},
      {"measurement": "binding result", "setting": "HSP70 chaperone HSPA1B", "result": "binds"},
      {"measurement": "binding result", "setting": "UCH37 (endogenous) [7]", "result": "binds"}
    ]}
  ]
}
